From PMC7015237, “mTORC1 signalling is not essential for the maintenance of muscle mass and function in adult sedentary mice” (Journal of Cachexia, Sarcopenia and Muscle, 2019) come the findings set out here.

The target of the assay is T1, eukaryotic translation initiation factor 4E (mouse (endogenous in gastrocnemius …, UniProt P63073 1-217)).
T1 construct: eukaryotic translation initiation factor 4E (eIF4E), mouse, endogenous in gastrocnemius muscle; also called eIF4E; source: endogenous, mouse gastrocnemius muscle lysate (3 month iRAmKO and control mice)
Briefly: pull-down; m7GTP-agarose beads on 400 ug gastrocnemius lysate of 3 month iRAmKO (raptor-depleted) and control mice, overnight at 4°C; lysis buffer 20 mM Hepes pH 7.4, 50 mM KCl, 0.2 mM EDTA, 0.5% Triton X-100; western blot for eIF4E and 4E-BP1; 4E-BP1 normalised to eIF4E. The conditions noted are these: partners not purified.

T1 sequence (P63073 whole entry): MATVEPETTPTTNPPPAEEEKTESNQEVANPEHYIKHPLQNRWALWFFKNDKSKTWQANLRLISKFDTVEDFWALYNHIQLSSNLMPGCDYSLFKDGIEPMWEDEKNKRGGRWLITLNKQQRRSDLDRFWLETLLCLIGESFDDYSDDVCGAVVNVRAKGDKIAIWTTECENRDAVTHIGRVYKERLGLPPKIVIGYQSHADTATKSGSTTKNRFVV

B1: eukaryotic translation initiation factor 4E-binding protein 1 (natural protein, UniProt Q60876 1-117, looked up)
chain: MSAGSSCSQTPSRAIPTRRVALGDGVQLPPGDYSTTPGGTLFSTTPGGTRIIYDRKFLMECRNSPVAKTPPKDLPAIPGVTSPTSDEPPMQASQSQLPSSPEDKRAGGEESQFEMDI
notes: Phosphorylation of 4E-BP1 (S65) is lower in iRAmKO muscle than in controls; the phosphorylation state of the pulled-down protein was not determined; also called 4E-BP1; source: endogenous, mouse gastrocnemius muscle lysate (3 month iRAmKO and control mice)
Regarding B1, the “fold change of the ratio of 4E-BP1 to eIF4E in the m7GTP pulldown, iRAmKO against control mice” value was 2.5 fold.
